# From publication PMC4635490, “VP22 core domain from Herpes simplex virus 1 reveals a surprising structural conservation in both the Alpha- and Gammaherpesvirinae subfamilies” (The Journal of General Virology, 2015)
# B1: VP22 core domain (conserved C-terminal domain) from Herpes simplex virus 1, residues 174-281 (domain or fragment)
# chain: RKLHFSTAPPNPDAPWTPRVAGFNKRVFCAAVGRLAAMHARMAAVQLWDMSRPRTDEDLNELLGITTIRVTVCEGKNLLQRANELVNPDVVQDVDAATATRGRSAASR
# notes: VP22 tegument protein of Herpes simplex virus 1 (Human herpesvirus 1), GenBank BAE87004.1, residues 174-281; electron density seen for residues 174-260 plus three amino acids of the N-terminal tag; The tag was not removed: the monomer mass of 14 551 g/mol includes the purification tag and the TEV site; source: bacterial cells, purified (HisTrap HP, Superdex 75 size exclusion); not shown: His6, …
# Target: the molecule itself
# Assay: SEC-MALS; Superdex 200 5/150 GL, 20 mM HEPES pH 7.5, 300 mM NaCl, 10 % glycerol, 2 mM TCEP; 20 µl of 6 mg/ml VP22core injected, 0.3 ml/min
protein,measurement,value
B1,stoichiometry N,2
